Measurements: patent publication US20240287194A1, “Targeting Extracellular Matrix Proteins to Regulate NK Cell Function in Peripheral Tissues” (The General Hospital Corporation, priority 2021, published 2024)

Legend:
Format in all cases: cell-based, mice
splenic cNK cells [1] = test: LEGENDplex chemokine release by splenic NK cells co-cultured with m157-MEF on ECM proteins; details: for CCL5 release by splenic cNK cells / CXCL10 release by splenic cNK cells: 12 hours
Experimental: NK cells purified from spleens under sterile conditions were used for LEGENDplex experiments. Spleens from 8-9-week-old C57BL/6 female WT mice were harvested and mashed through a 70 μm filter. Cells were resuspended in RBC lysis for two minutes and washed with 1×PBS/2% FCS/5 mM EDTA. NK cells were enriched by negative selection using an NK cell isolation kit (Milteny Biotec, catalog no. 130-115-818) and magnetic LS columns (Milteny Biotec, catalog no. 130-042-401) according to the manufacturer's instructions. Enrichment of isolated NK cells was confirmed by flow cytometry and was 88-90% CD3^−NK1.1^+NKp46^+ cells. Enriched NK cells were resuspended in RPMI 1640 media supplemented with 10% FBS and 1% P/S.
ECM protein coating on wells was performed as previously described. 1×10^5 enriched splenic NK cells was mixed with 20 μg of respective ECM protein per well in RPMI 1640/10% FBS/1% P/S/20 mM Glutamine and incubated at RT for 10 minutes. NK cells and ECM mix were plated onto the ECM-coated well and were incubated at 37° C./5% CO2 for 2 hours. At the end of the incubation, 1×10^5 MEF (WT or m157) cells were added to the respective wells to obtain a 1:1 NK:MEF ratio. NK cells and MEF were co-cultured at 37° C. 5% CO2 for 24 hours supplemented with mIL-12 (10 ng/mL, Biolegend, catalog no. 577002) and mIL-15 (1 ng/ml, Shenandoah Biotechnology, catalog no. 200-07-100 μg). The supernatant was collected at 12- and 24-hour intervals, centrifuged to remove cells/cell debris and subsequently frozen at −80° C. until further use. Quantification of murine cytokines and chemokines (CCL2, CCL5, CXCL9, CXCL10) in supernatants was performed with LEGENDplex kits (Biolegend, catalog nos. 740451, 740622) according to manufacturer's instructions. In brief, a mix of capture beads with distinct size and fluorescence was incubated with undiluted S/N or standard dilutions for 2 hours at RT with constant shaking. Beads were washed, a biotinylated detection antibody was added and the plate was incubated for 1 hour at RT with constant shaking. The streptavidin-PE conjugate was added and further incubated for 30 minutes at RT on a shaker. Beads were washed and subsequently acquired on a BD LSRFortessa X-20 flow cytometer. Analysis and quantification of the results were done using LEGENDplex data analysis software (BioLegend). Quantification was reported as pg/ml for CCL2, CCL5, CXCL10 and as MFI for CXCL9.

splenic cNK cells [2] = test: Phospho-signaling in splenic cNK cells stimulated with H2O2 in the presence of ECM proteins; details: baseline and 2- and 5-minute exposure to H2O2
Experimental: (§1) Single-cell suspensions from all samples were prepared by straining through a 70 μm filter. 2.4G2 supernatant treated cells were stained in 1×PBS/2% FCS/5 mM EDTA with the appropriate surface antibodies (Table 2) for 30 minutes at 4° C., washed and analyzed by flow cytometry. For intracellular staining, cells were fixed and permeabilized using True-Nuclear Transcription Buffer set (Biolegend, catalog no. 424401) according to the manufacturer's protocol then incubated with appropriate antibodies (Table 2) for 60 min at RT, washed and analyzed by flow cytometry. For in vitro signaling experiments, following the specified time points, cells were fixed with an equal volume of pre-warmed 1×aldehyde based fixation buffer (Biolegend, catalog no. 420801) for 20 min at RT. Fixed cells were permeabilized by drop-wise addition of chilled methanol-based solution True-Phos Perm Buffer (Biolegend, catalog no. 425401) while mixed on a vortex. Cells were stored in-20° C. and dark for 1-3 days before washing them two times with ˜3 mL of 1×PBS/2% FCS/5 mM EDTA. Cells were subsequently stained with appropriate antibodies against surface markers and specific phosphorylated signaling proteins (Table 2) for 60 min at RT, washed and analyzed by flow cytometry. Cells were assayed on a BD LSRFortessa X-20 flow cytometer (BD Bioscience, Billerica, MA, USA) and data were analyzed using FlowJo software Version 10 (Tree Star, Ashlad, OR, USA). NK cells in WT non-reporting mice were identified as CD3^− NK1.1^+NKp46^+.
(§2) For in vitro experiments in the presence of ECM components, Collagen I (Rat tail, Sigma, catalog no. 08-115), collagen III (Human placenta, Sigma, catalog no. C4407), collagen IV (Mouse, Sigma, catalog no. C0543), Elastin (Mouse lung, Sigma, catalog no. E6402), Laminin (Mouse, Thermo Fisher, catalog no. 23017015) and Fibronectin (Rat plasma, Sigma, catalog no. F0635) were diluted in 1×PBS and coated at 20 μ ENREF 45 g/cm^2 in a 24 well tissue culture plate for 30 minutes at RT with gentle shaking followed by overnight at 4° C. Spleens from Ncr1^iCre, ROSA^mT-mG, WT or Lair1^−/− mice were harvested as described above. Then, 5×10^6 splenocytes resuspended in RPMI 10% FBS/1% P/S/20 mM Glutamine were mixed with 20 μg of respective ECM protein per well and were incubated at RT for 10 minutes. Splenocytes and ECM mix were plated onto the ECM-coated well and were incubated at 37° C./5% CO2 for 2 hours (short ECM exposure) or 17 hours (long ECM exposure). At the end of the incubation, 1×10^5 MEF (WT or m157) cells were added to each well to obtain a 50:1 splenocyte:MEF ratio. For cell signaling experiments, hydrogen peroxide (H2O2) at a final concentration of 2.5 mM or 1×10^5 MEF-m157 cells were added to each well except in “0 min” wells which were unstimulated and fixed immediately. Splenocytes were stimulated with 2.5 mM H2O2 for 2 min and 5 min or were co-cultured with MEF-m157 for 30 min and 60 min (signaling) or 7 hours (CD107a and IFN[…]) at 37° C./5% CO2. Splenocytes and MEF in co-culture were supplemented with mIL-12 (10 ng/mL, Biolegend, catalog no. 577002), mIL-15 (1 ng/mL, Shenandoah Biotechnology, catalog no. 200-07) and hIL-2 (Biolegend, catalog no. 589104; only long ECM exposure) as well as for CD107a/IFN experiments. 1 μL of anti-CD107a-BV421 (1D4B, Biolegend, catalog no. 121618), 1×Brefeldin A (Biolegend, catalog no. 420601) and 1×Monensin (Biolegend, catalog no. 420701) were added. Following the co-culture, cells were washed with 1×PBS/2% FCS/5 mM EDTA and the pellet was resuspended in 2.4G2 blocking solution before flow cytometry staining.

[3] = system: Ly49H^+ splenic cNK cells; test: Splenic cNK cell co-culture with m157-MEF in the presence of ECM proteins (CD107a, IFNγ flow cytometry); details: for Ly49H+ cNK cell degranulation (CD107a): 9 and 24 hours co-culture with m157-MEF, ECM coated 20 μg/cm2
Experimental: as §1, §2

splenic cNK cells [4] = test: Phospho-signaling in splenic cNK cells co-cultured with m157-MEF in the presence of ECM proteins
Experimental: as §1, with “Cells were stored in-20° C. and dark for 1-3 days before washing them two times with ˜3 mL of 1×PBS/2% FCS/5 mM EDTA.” left out, “NK cells in WT non-reporting mice were identified as CD3^− NK1.1^+NKp46^+.” left out

Q: Which results are given for “collagen I: Collagen I (Rat tail, Sigma), dermal ECM protein”?
A: CCL5 release by splenic cNK cells (splenic cNK cells [1]): suppressed; CXCL10 release by splenic cNK cells (splenic cNK cells [1]): significantly induced; CCL2 release by splenic cNK cells (splenic cNK cells [1]; 24 hours): significantly induced; pNFκB in NK cells (splenic cNK cells [2]): suppressive effect; pSTAT3 in NK cells (splenic cNK cells [2]): suppressive effect; Ly49H+ cNK cell degranulation (CD107a) [3]: potently blocked; IFNγ production by Ly49H+ cNK cells ([3]; exposed to m157-MEF, 9 and 24 hours): suppressed

B1: collagen III: collagen III (Human placenta, Sigma), dermal ECM protein (protein, UniProt P02461 154-1221, looked up)
Collagen alpha-1(III) chain: QYDSYDVKSGVAVGGLAGYPGPAGPPGPPGPPGTSGHPGSPGSPGYQGPPGEPGQAGPSGPPGPPGAIGPSGPAGKDGESGRPGRPGERGLPGPPGIKGPAGIPGFPGMKGHRGFDGRNGEKGETGAPGLKGENGLPGENGAPGPMGPRGAPGERGRPGLPGAAGARGNDGARGSDGQPGPPGPPGTAGFPGSPGAKGEVGPAGSPGSNGAPGQRGEPGPQGHAGAQGPPGPPGINGSPGGKGEMGPAGIPGAPGLMGARGPPGPAGANGAPGLRGGAGEPGKNGAKGEPGPRGERGEAGIPGVPGAKGEDGKDGSPGEPGANGLPGAAGERGAPGFRGPAGPNGIPGEKGPAGERGAPGPAGPRGAAGEPGRDGVPGGPGMRGMPGSPGGPGSDGKPGPPGSQGESGRPGPPGPSGPRGQPGVMGFPGPKGNDGAPGKNGERGGPGGPGPQGPPGKNGETGPQGPPGPTGPGGDKGDTGPPGPQGLQGLPGTGGPPGENGKPGEPGPKGDAGAPGAPGGKGDAGAPGERGPPGLAGAPGLRGGAGPPGPEGGKGAAGPPGPPGAAGTPGLQGMPGERGGLGSPGPKGDKGEPGGPGADGVPGKDGPRGPTGPIGPPGPAGQPGDKGEGGAPGLPGIAGPRGSPGERGETGPPGPAGFPGAPGQNGEPGGKGERGAPGEKGEGGPPGVAGPPGGSGPAGPPGPQGVKGERGSPGGPGAAGFPGARGLPGPPGSNGNPGPPGPSGSPGKDGPPGPAGNTGAPGSPGVSGPKGDAGQPGEKGSPGAQGPPGAPGPLGIAGITGARGLAGPPGMPGPRGSPGPQGVKGESGKPGANGLSGERGPPGPQGLPGLAGTAGEPGRDGNPGSDGLPGRDGSPGGKGDRGENGSPGAPGAPGHPGPPGPVGPAGKSGDRGESGPAGPAGAPGPAGSRGAPGPQGPRGDKGETGERGAAGIKGHRGFPGNPGAPGSPGPAGQQGAIGSPGPAGPRGPVGPSGPPGKDGTSGHPGPIGPPGPRGNRGERGSEGSPGHPGQPGPPGPPGAPGPCCGGVGAAAIAGIGGEKAGGFAPYYG
Q: B1 was tested. Which “CCL5 release by splenic cNK cells” value (splenic cNK cells [1]) did it give?
A: suppressed

Q: And the “CXCL10 release by splenic cNK cells” value (splenic cNK cells [1])?
A: significantly induced

Q: What about the “CCL2 release by splenic cNK cells” value (splenic cNK cells [1]; 24 hours) of the same molecule?
A: significantly induced

Q: What about the “CXCL9 release by cNK cells” value (splenic cNK cells [1]; 24 hours) of the same molecule?
A: induced

Q: What about the “pNFκB in NK cells” value (splenic cNK cells [2]) of the same molecule?
A: increased

Q: And the “phospho-NFκB (p65) in splenic cNK cells” value (splenic cNK cells [4]; after 30- and 60-minutes exposure to m157-MEF)?
A: highly amplified

Q: And the “phospho-NFκB (p65) in splenic cNK cells” value (splenic cNK cells [4]; at baseline)?
A: significantly induced

Q: What about the “Ly49H+ cNK cell degranulation (CD107a)” value [3] of the same molecule?
A: potently blocked
